Measured values as given in patent US20100215682A1.

Columns and labels:
[1] = biological target: HBsAg-gp120 hybrid virus-like particles, gp120 89.6 with loop C deletion (424-432 …, beta 20-21 loop) (hepatitis B virus; HIV-1 strain 89.6); experiment: ELISA, gp120-HBsAg particles coated on the plate; mean of six experiments
[2] = biological target: HBsAg-gp120 hybrid virus-like particles, gp120 89.6 with loop C deletion (424-432 …, beta 20-21 loop) (hepatitis B virus; HIV-1 strain 89.6); experiment: ELISA, gp120-HBsAg particles coated on the plate
[3] = biological target: HBsAg-gp120 hybrid virus-like particles, gp120 89.6 with loop C deletion (424-432 …, beta 20-21 loop) (hepatitis B virus; HIV-1 strain 89.6); experiment: ELISA, half maximal binding compared, gp120-HBsAg particles coated on the plate

Substance | fold increase of ELISA peak OD against 89.6 wild type [1] | fold increase of binding against 89.6 wild type [2] | peak OD as percent of the IIIB value (% of the IIIB value) [2] | shift in apparent affinity relative to 89.6 wild type [3]
monoclonal IgG1 b12 (antibody) | 2.6 fold | 3 fold | 80 to 100 | 
monoclonal F105 (antibody) | 7.1 fold | > 10 fold |  | > 100 fold
